This note sets out measurements from patent US20190352639A1 (University of Washington, published 2019).

Series [1] concerns the molecule itself. The series can be described thus: size exclusion chromatography and negative stain electron microscopy, self-assembly.
Series [2] deals with the molecule itself. As to the kind of experiment: electron cryo-tomography of vesicles from transfected HEK293T cells, self-assembly.

B1: Myr-I3-01-myc-p6 (designed binder)
chain: MGARASGSKSGSGSDSGSKMEELFKKHKIVAVLRANSVEEAKKKALAVFLGGVHLIEITFTVPDADTVIKELSFLKEMGAIIGAGTVTSVEQCRKAVESGAEFIVSPHLDEEISQFCKEKGVFYMPGVMTPTELVKAMKLGHTILKLFPGEVVGPQFVKAMKGPFPNVKFVPTGGVNLDNVCEWFKAGVLAVGVGSALVKGTPVEVAEKAKAFVEKIRGCTEQKLISEEDLQSRPEPTAPPEESFRSGVETTTPPQKQEPIDKELYPLTSLRSLFGNDPSSQ
modifications: N-terminal myristoylation motif (6 N-terminal residues of HIV Gag); myristoylated in mammalian cells, not in E. coli
notes: Fusion of the HIV Gag N-terminal six residues, a linker, I3-01, a myc tag and the HIV Gag p6 domain; also called Myr-I3-01-p6
With B1, in series [1], the binding result is on record as “binds”.

B2: EPN-01 (designed binder)
chain: MGARASGSKSGSGSDSGSKIEELFKKHKIVAVLRANSVEEAKKKALAVFLGGVHLIEITFTVPDADTVIKELSFLKEMGAIIGAGTVTSVEQCRKAVESGAEFIVSPHLDEEISQFCKEKGVFYMPGVMTPTELVKAMKLGHTILKLFPGEVVGPQFVKAMKGPFPNVKFVPTGGVNLDNVCEWFKAGVLAVGVGSALVKGTPVEVAEKAKAFVEKIRGCTEQKLISEEDLQSRPEPTAPPEESFRSGVETTTPPQKQEPIDKELYPLTSLRSLFGNDPSSQ
modifications: N-terminal myristoylation motif
notes: Myr-I3-01-myc-p6 with the methionine at the N-terminal end of the I3-01 O domain mutated to isoleucine
Regarding B2, the binding result in series [2] is given as “binds”.
